Assay results taken from article PMC7033585.

What was measured:
[1] = biological target: CdiI536 (Escherichia coli) (UniProt Q0T964); details: cited from earlier work
[2] = biological target: YeeF-CT^H581A, point variant of the C-terminal toxic domain of YeeF (Bacillus subtilis subsp. spizizenii str. W23) (UniProt O31506); test: AUC; sedimentation velocity of each protein alone at 8, 16 and 32 μM; 20 mM HEPES pH 7.5, 150 mM NaCl; 40,000 rpm, 25°C; c(s) fit with SEDFIT
[3] = biological target: YeeF-CT^H581A, C-terminal toxic domain of YeeF (Ile527 to Gly669) with the point mutation H581A (Bacillus subtilis subsp. spizizenii str. W23) (UniProt O31506); test: as above
[4] = biological target: YeeF-CT^H581A, point variant of the C-terminal toxic domain of YeeF (Bacillus subtilis subsp. spizizenii str. W23) (UniProt O31506); test: ITC; YeeF-CT^(M) 10 μM in the cell, YezG 300 μM in the syringe; 25°C; 20 mM HEPES pH 7.5, 150 mM NaCl; two binding site model
[5] = biological target: YeeF-CT^H581A, point variant of the C-terminal toxic domain of YeeF (Bacillus subtilis subsp. spizizenii str. W23) (UniProt O31506); test: AUC; sedimentation velocity of mixtures: YeeF-CT fixed, increasing YezG, incubated at 4°C for 1 h beforehand; 20 mM HEPES pH 7.5, 150 mM NaCl; 25°C

CdiA-CT536 CT (from UniProt Q0T963)
Kd [1]: 26.4 nM

YeeF-CT^H581A, point variant of the C-terminal toxic domain of YeeF (from UniProt O31506 527-669) (domain or fragment)
stoichiometry N [2]: 2

YeeF-CT^H581A, C-terminal toxic domain of YeeF (Ile527 to Gly669) with the point mutation H581A (from UniProt O31506 527-669) (domain or fragment)
stoichiometry N [3]: 2

YezG immunity protein (from UniProt C0H3X4 1-151) (natural protein)
KD1 (first site of the two-site fit) [4]: 29.4 nM
KD2 (second site of the two-site fit) [4]: 91.7 nM
stoichiometry N (YezG monomers per YeeF-CT dimer) [5]: 2
